Results: patent US20250051455A1 (Hoffmann-La Roche, published 2025)

Molecular target: T1, recombinant soluble human HLA-G β2M MHC class I complex, monomer (human)
T1 construct: His tagged; biotinylated where coated on streptavidin plates, non-biotinylated in SPR; also called HLA-G-0003; wt HLA-G (monomer)
Experiment: SPR Biacore T200, antibody captured via anti-Fc, HLA-G monomer as analyte, 25 C
Procedure: Binding kinetics of anti-HLA-G antibodies to human HLA-G, human HLA-G degrafted and human HLA-A2 were investigated by surface plasmon resonance using a BIACORE T200 instrument (GE Healthcare). All experiments were performed at 25° C. using PBS Buffer (pH 7.4+0.05% Tween20) as running buffer and PBS Buffer (+0.1% BSA) as dilution buffer. Anti-human Fc (JIR009-005-098, Jackson) or anti-rat Fc (JIR112-005-071, Jackson) or anti-Mouse Fc (JIR115-005-071, Jackson) antibodies were immobilized on a Series S CM5 Sensor Chip (GE Healthcare) at pH 5.0 by using an amine coupling kit supplied by GE Healthcare. Anti-HLA-G antibodies were captured on the surface leading to a capturing response of 50-200 RU. HLA-G molecules were injected for 180 s at 30 μl/min with concentrations from 2.5 up to 800 nM (2×1:2 and 4×1:3 dilution series) onto the surface (association phase). The dissociation phase was monitored for 300-600 sec by washing with running buffer. The surface was regenerated by injecting H3PO4 (0,85%) for 60+30 seconds for anti-human Fc capturing antibodies, glycine pH1,5 for 60 seconds and glycine pH2,0 for 60 seconds for anti-rat Fc capturing antibodies, H3PO4 (0,85%) for 80+60 seconds for anti-mouse Fc capturing antibodies. Bulk refractive index differences were corrected by subtracting the response obtained from a mock surface. Blank injections were subtracted (double referencing). The derived curves were fitted to a 1:1 Langmuir binding model using the BIAevaluation software.
The above table summarizes the antibody affinities and t½ values against wt and degrafted HLA-G as assessed by Surface plasmon resonance (Biacore) analysis. Binding kinetics of anti-HLA-G antibodies to human HLA-G and human HLA-G degrafted were investigated by surface plasmon resonance using a BIACORE T200 instrument (GE Healthcare). All experiments were performed at 25° C. using PBS Buffer (pH 7.4+0.05% Tween20) as running buffer and PBS Buffer (+0.1% BSA) as dilution buffer. Anti-human Fc (JIR009-005-098, Jackson) or anti-rat Fc (JIR112-005-071, Jackson) or anti-Mouse Fc (JIR115-005-071, Jackson) antibodies were immobilized on a Series S CM5 Sensor Chip (GE Healthcare) at pH 5.0 by using an amine coupling kit supplied by GE Healthcare.

Kd: 24 nM
koff: 0.002 s⁻¹
kon: 83000 M⁻¹ s⁻¹
t 1/2: 6 min
B1: HLA-G-0031-0104 (humanized variant of HLA-G-0031) (antibody, V domains shown)
VH: QVQLVQSGAEVKKPGASVKVSCKASGYTFTDYWVSWVRQAPGQRLEWMGEISPNSGASNFDENFQGRVTITRDTSASTAYMELSSLRSEDTAVYYCTRSSHGSFRWFAYWGQGTLVTVSS
VL: DIQMTQSPSSLSASVGDRVTITCRASSSVSSNHLHWYQQKPGKAPKFLIYSTSQRASGVPSRFSGSGSGTEFTLTISSLQPEDFATYYCQQGSSNPYTFGQGTKLEIK
notes: Humanized variant (VH framework IGHV1-3, VL framework IGKV1-17 with back-mutation R46F, Kabat)
